Experiments:
[1] = target: native OspC type K (OspCK) on live B. burgdorferi strain 297 (B. burgdorferi (endogenous in strain 297)); assay: flow cytometry on cells
[2] = target: OspC type B (OspCB) used in BLI (Borreliella burgdorferi, OspC type B …, UniProt Q44977); assay: BLI
crystal structure = target: the molecule itself; assay: crystal structure

Binder | MFI [1] | binding result [2] | stoichiometry N (crystal structure)
human monoclonal antibody B11 IgG1 (antibody, V domains shown) VH: QLQLQESGPGLVKPSQTLSLTCTLSGGSISSTSYYWGWIRQPPGSGLEWIGSMYHSGNTYYKSSLKGRVTISLDTSRTQFSLRLTSVTAADTAVYYCARLGDVFNSAMDVWGQGTTVIVSS VL: EIVMTQSPVTLSVSPGERATLSCRASQSVGNNLAWYQHKPGQAPRLLIYDASTRATGIPGRFSGSGSGTEFTLTISSLQSEDFAVYYCQEYNNWPRYTFGQGAKLEIR | < 35 | no binding | 
Recombinant Outer surface protein C type A (OspCA), residues 38 to 201, homodimer (domain or fragment, B. burgdorferi B31, UniProt Q07337 38-201, looked up) KGPNLTEISKKITDSNAVLLAVKEVEALLSSIDEIAAKAIGKKIHQNNGLDTENNHNGSLLAGAYAISTLIKQKLDGLKNEGLKEKIDAAKKCSETFTNKLKEKHTDLGKEGVTDADAKEAILKTNGTKTKGAEELGKLFESVEVLSKAAKEMLANSVKELTSP |  |  | 2
